Patent US20030203372A1, “Analysis method” (priority 2000, published 2003)

Columns and labels:
[1] = system: human breast and ovary tumors; test: Custom gene array, breast and ovary tumors versus normal adjacent tissue; conditions: Table 19; for gene expression level on custom gene array, Breast nor H / gene expression level on custom gene array, Breast nor K / gene expression level on custom gene array, Ovary nor E / gene expression level on custom gene array, Ovary nor F / gene expression level on custom gene array, Ovary nor G: normal adjacent tissue; for gene expression level on custom gene array, Breast nor H / gene expression level on custom gene array, Breast tum H: patient H; for gene expression level on custom gene array, Breast nor K / gene expression level on custom gene array, Breast tum K: patient K; for gene expression level on custom gene array, Breast tum H / gene expression level on custom gene array, Breast tum K / gene expression level on custom gene array, Ovary tum E / gene expression level on custom gene array, Ovary tum F / gene expression level on custom gene array, Ovary tum G: tumor tissue; for gene expression level on custom gene array, Ovary nor E / gene expression level on custom gene array, Ovary tum E: patient E; for gene expression level on custom gene array, Ovary nor F / gene expression level on custom gene array, Ovary tum F: patient F; for gene expression level on custom gene array, Ovary nor G / gene expression level on custom gene array, Ovary tum G: patient G
In short: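 Values are per-gene relative to that gene's median across the series, after per-chip normalisation for labelling and hybridization efficiency. Samples: breast and ovary tumors with normal tissue from 5 patients of varied diagnoses, mostly from the same individual (one age-matched separate donor), compared within patient.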

[2] = system: primary human cell cultures (11 cell types); test: Custom gene array, 11 human cell types in normoxia or hypoxia for 6 hr and 18 hr; assay type: cell-based
In short: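 Values are each gene's expression relative to its median over all cell types and conditions, after per-array normalisation to control genes and merging of replicate arrays. Cells were 11 human types, mostly unmodified primary cultures, kept in normoxia or exposed to hypoxia for 6 hr or 18 hr.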

human macrophages = test: Custom gene array, macrophages with no cytokines, IL-10 or LPS + IFN, in normoxia and hypoxia; assay type: cell-based; conditions: for mRNA EXPRESSION (experimental condition) #1: #1 no cytokines/normoxia; for mRNA EXPRESSION (experimental condition) #2: #2 no cytokines/hypoxia; for mRNA EXPRESSION (experimental condition) #3: #3 IL-10/normoxia; for mRNA EXPRESSION (experimental condition) #4: #4 IL-10/hypoxia; for mRNA EXPRESSION (experimental condition) #5: #5 LPS/IFN/normoxia; for mRNA EXPRESSION (experimental condition) #6: #6 LPS/IFN/hypoxia
In short: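 Cultured macrophages were left untreated or given IL-10 or LPS + IFN, each at 100 ng/ml final, for 6 hr under normoxia or hypoxia (0.1% oxygen). Six conditions in total.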

[3] = Table 15, referenced to the median value of that gene throughout all 6 conditions
[4] = Table 17, referenced to median of the gene over 6 conditions

B1: p1F24 (nucleic acid, listed as Homo Sapiens)
DNA: ATGAACTGGCATCTCCCCCTCTTCCTCTTGGCCTCTGTGACGCTGCCTTCCATCTGCTCCCACTTCAATCCTCTGTCTCTCGAGGAACTAGGCTCCAACACGGGGATCCAGGTTTTCAATCAGATTGTGAAGTCGAGGCCTCATGACAACATCGTGATCTCTCCCCATGGGATTGCGTCGGTCCTGGGGATGCTTCAGCTGGGGGCGGACGGCAGGACCAAGAAGCAGCTCGCCATGGTGATGAGATACGGCGTAAATGGAGTTGGTAAAATATTAAAGAAGATCAACAAGGCCATCGTCTCCAAGAAGAATAAAGACATTGTGACAGTGGCTAACGCCGTGTTTGTTAAGAATGCCTCTGAAATTGAAGTGCCTTTTGTTACAAGGAACAAAGATGTGTTCCAGTGTGAGGTCCGGAATGTGAACTTTGAGGATCCAGCCTCTGCCTGTGATTCCATCAATGCATGGGTTAAAAACGAAACCAGGGATATGATTGACAATCTGCTGTCCCCAGATCTTATTGATGGTGTGCTCACCAGACTGGTCCTCGTCAACGCAGTGTATTTCAAGGGTCTGTGGAAATCACGGTTCCAACCCGAGAACACAAAGAAACGCACTTTCGTGGCAGCCGACGGGAAATCCTATCAAGTGCCAATGCTGGCCCAGCTCTCCGTGTTCCGGTGTGGGTCGACAAGTGCCCCCAATGATTTATGGTACAACTTCATTGAACTGCCCTACCACGGGGAAAGCATCAGCATGCTGATTGCACTGCCGACTGAGAGCTCCACTCCGCTGTCTGCCATCATCCCACACATCAGCACCAAGACCATAGACAGCTGGATGAGCATCATGGTCCCCAAGAGGGTGCAGGTGATCCTGCCCAAGTTCACAGCTGTAGCACAAACAGATTTGAAGGAGCCGCTGAAAGTTCTTGGCATTACTGACATGTTTGATTCATCAAAGGCAAATTTTGCAAAAATAACAAGGTCAGAAAACCTCCATGTTTCTCATATCTTGCAAAAAGCAAAAATTGAAGTCAGTGAAGATGGAACCAAAGCTTCAGCAGCAACAACTGCAATTCTCATTGCAAGATCATCGCCTCCCTGGTTTATAGTAGACAGACCTTTTCTGTTTTTCATCCGACATAATCCTACAGGTGCTGTGTTATTCATGGGGCAGATAAACAAACCC
gene expression level on custom gene array, Breast nor H [1]: 1.64 | gene expression level on custom gene array, Breast nor K [1]: 1.25 | gene expression level on custom gene array, Breast tum H [1]: 1.89 | gene expression level on custom gene array, Breast tum K [1]: 0.96 | gene expression level on custom gene array, Ovary nor E [1]: 3.17 | gene expression level on custom gene array, Ovary nor F [1]: 3.24 | gene expression level on custom gene array, Ovary nor G [1]: 1.26 | gene expression level on custom gene array, Ovary tum E [1]: 0.93 | gene expression level on custom gene array, Ovary tum F [1]: 0.85 | gene expression level on custom gene array, Ovary tum G [1]: 0.80 | mRNA expression level ([2]; cell type #1, HY (hypoxia) 6 hr): 0.70 | mRNA expression level ([2]; cell type #1, HY (hypoxia) 18 hr): 1.01 | mRNA expression level ([2]; cell type #1, NO (normoxia)): 1.17 | mRNA expression level ([2]; cell type #2, HY (hypoxia) 6 hr): 5.52 | mRNA expression level ([2]; cell type #2, HY (hypoxia) 18 hr): 8.15 | mRNA expression level ([2]; cell type #2, NO (normoxia)): 9.63 | mRNA expression level ([2]; cell type #3, HY (hypoxia) 6 hr): 0.87 | mRNA expression level ([2]; cell type #3, HY (hypoxia) 18 hr): 0.56 | mRNA expression level ([2]; cell type #3, NO (normoxia)): 0.56 | mRNA expression level ([2]; cell type #4, HY (hypoxia) 6 hr): 11.5 | mRNA expression level ([2]; cell type #4, HY (hypoxia) 18 hr): 14.2 | mRNA expression level ([2]; cell type #4, NO (normoxia)): 12.8 | mRNA expression level ([2]; cell type #5, HY (hypoxia) 6 hr): 0.15 | mRNA expression level ([2]; cell type #5, NO (normoxia)): 0.12 | mRNA expression level ([2]; cell type #6, HY (hypoxia) 6 hr): 0.14 | mRNA expression level ([2]; cell type #6, NO (normoxia)): 0.11 | mRNA EXPRESSION (experimental condition) #1 (human macrophages; [3]): 0.65 | mRNA EXPRESSION (experimental condition) #2 (human macrophages; [3]): 0.68 | mRNA EXPRESSION (experimental condition) #3 (human macrophages; [3]): 0.99 | mRNA EXPRESSION (experimental condition) #4 (human macrophages; [3]): 1.10 | mRNA EXPRESSION (experimental condition) #5 (human macrophages; [3]): 1.62 | mRNA EXPRESSION (experimental condition) #6 (human macrophages; [3]): 1.80

B2: p1K2 (nucleic acid, listed as Homo Sapiens)
DNA: AAGTCTCAGAGGCTGGAGAGCAGAGCACCAAGATCGTTCTGGCAGGAACAGCCAGTGGGAGGTTCCAGCTGAGCGCTCCCCAGAGGTGAGCTGATCCCCAGCCACAGCACACAGGACCAGGCTGCGAGAACAGCATCATCAGCATCATGCTATTACAATCCCAAACCATGGGGGTTTCTCACAGCTTTACACCAAAGGGCATCACTATCCCTCAAAGAGAGAAACCTGGACACATGTACCAAAACGAAGATTACCTGCAGAACGGGCTGCCAACAGAAACCACCGTTCTTGGGACAGTCCAGATCCTGTGTTGCCTGTTGATTTCAAGTCTGGGGGCCATCTTGGTTTTTGCTCCCTACCCCTCCCACTTCAATCCAGCAATTTCCACCACTTTGATGTCTGGGTACCCATTTTTAGGAGCTCTGTGTTTTGGCATTACTGGATCCCTCTCAATTATCTCTGGAAAACAATCAACTAAGCCCTTTGACCTGAGCAGCTTGACCTCAAATGCAGTGAGTTCTGTTACTGCAGGAGCAGGCCTCTTCCTCCTTGCTGACAGCATGGTAGCCCTGAGGACTGCCTCTCAACATTGTGGCTCAGAAATGGATTATCTATCCTCATTGCCTTATTCGGAGTACTATTATCCAATATATGAAATCAAAGATTGTCTCCTGACCAGTGTCAGTTTAACAGGTGTCCTAGTGGTGATGCTCATCTTCACTGTGCTGGAGCTCTTATTAGCTGCATACAGTTCTGTCTTTTGGTGGAAACAGCTCTACTCCAACAACCCTGGGAGTTCATTTTCCTCGACCCAGTCACAAGATCATATCCAACAGGTCAAAAAGAGTTCTTCACGGTCTTGGATATAAGTAACTCTTGGCCTCAGAGGAAGGAAAAGCAACTCAACACTCATGGTCAAGTGTGATTAGACTTTCCTGAAATCTCTGCCATTTTAGATACTGTGAAACAAACTAAAAAAAAAAAAGCTTTTGTTTTGTATTTGTTTACTATGAGTCGTTATTTAATTTCTCTTGAAAATAATTTCCTCAAAGCCCAAGTCAATAAA
gene expression level on custom gene array, Breast nor H [1]: 1.00 | gene expression level on custom gene array, Breast nor K [1]: 0.79 | gene expression level on custom gene array, Breast tum H [1]: 0.49 | gene expression level on custom gene array, Breast tum K [1]: 1.52 | gene expression level on custom gene array, Ovary nor E [1]: 0.47 | gene expression level on custom gene array, Ovary nor F [1]: 1.30 | gene expression level on custom gene array, Ovary nor G [1]: 2.32 | gene expression level on custom gene array, Ovary tum E [1]: 0.29 | gene expression level on custom gene array, Ovary tum F [1]: 1.06 | gene expression level on custom gene array, Ovary tum G [1]: 0.31 | mRNA EXPRESSION (experimental condition) #1 (human macrophages; [4]): 1.30 | mRNA EXPRESSION (experimental condition) #2 (human macrophages; [4]): 0.98 | mRNA EXPRESSION (experimental condition) #3 (human macrophages; [4]): 0.51 | mRNA EXPRESSION (experimental condition) #4 (human macrophages; [4]): 0.59 | mRNA EXPRESSION (experimental condition) #5 (human macrophages; [4]): 1.11 | mRNA EXPRESSION (experimental condition) #6 (human macrophages; [4]): 0.91
